# Laboratory results as given in the supplement of paper PMC9732359.
# ± gives the uncertainty stated by the source.
# Test: protein stability index of a GFP-peptide fusion (yeast GPS) (PSI 1-4); higher = more stable; sorted into four equal gates, so the index is relative within each strain
# In short: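 Tiled 17-residue peptides from yeast proteins were fused downstream of GFP on a plasmid that also expresses Cherry, and the pooled library was carried in yeast. Mid-log cultures grown in leucine-free medium were sorted into four equal gates by GFP/Cherry fluorescence ratio. Plasmids from each gate were PCR-amplified and Illumina-sequenced, and reads were assigned to strains by barcodes. Each peptide's protein stability index is the sum, over gates, of the gate's read frequency multiplied by its gate number.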
Sequence,protein stability index (doa10∆),protein stability index (pdr5∆),protein stability index (san1∆),protein stability index (ubr1∆)
KYCEIMGDNSQLDFTEF [SNF2],3.16 ± 0.085,3.2 ± 0.11,2.87 ± 0.1,3.29 ± 0.073
KQENSTLLKKANRDDVK [RPC82],2.72 ± 0.085,2.51 ± 0.13,3.16 ± 0.22,3.12 ± 0.09
KSDTVTSASQPFKFGKT [YOR098C/NUP1],2.34 ± 0.081,1.71 ± 0.069,1.62 ± 0.12,1.97 ± 0.052
DMIKCFLPKLNSVRNSL [NUT1],2.52 ± 0.053,2.48 ± 0.089,2.47 ± 0.075,2.18 ± 0.035
NKVGSTGSLMGGNSTQN [YGR119C/NUP57],3.02 ± 0.076,3.38 ± 0.098,3.19 ± 0.059,3.17 ± 0.053
VQQQQQQQLRNQIQRQQ [SNF5],2.16 ± 0.071,2.5 ± 0.12,2.07 ± 0.2,2.06 ± 0.074
FEYVLYPSKTLKTDGVR [FAS2],2.42 ± 0.08,2.96 ± 0.069,2.26 ± 0.099,2.75 ± 0.081
NSFIKANLPWLGKAQNW [RPN2],–,2.6 ± 0.13,–,–
ENEDGNIEERKEKIQHE [BRR2],3.23 ± 0.14,3.47 ± 0.1,3.57 ± 0.092,3.3 ± 0.15
VVKASELDQFWQEYSSV [SRP14],3.04 ± 0.061,2.9 ± 0.071,3.14 ± 0.072,3.27 ± 0.048
LTGEATANALPLPAVFS [RPL4A],2.02 ± 0.052,2.36 ± 0.047,2.35 ± 0.068,2.71 ± 0.038
IQYVTYLLTQQQIWKSP [SOH1],2.16 ± 0.056,2.07 ± 0.057,1.71 ± 0.074,2.09 ± 0.047
NEGVPSPMLSISNLTQE [FAS1],2.84 ± 0.055,2.94 ± 0.062,2.96 ± 0.058,3.12 ± 0.059
IVTALLESDVNIALVSK [SRP54],3.22 ± 0.18,3.19 ± 0.088,3.24 ± 0.12,3.35 ± 0.12
SVFYNIANMVLPPEKIY [SIR2],1.78 ± 0.048,1.77 ± 0.043,1.81 ± 0.06,1.55 ± 0.04
KDENNTANDQYSSILGN [YCG1],3.02 ± 0.047,3.2 ± 0.046,3.01 ± 0.032,3.08 ± 0.034
PQQAQQQPNPLHGLTPT [GAL11],3 ± 0.068,2.95 ± 0.042,2.83 ± 0.051,3.05 ± 0.035
ICMESLFLEPSWSSSAA [PCI8],–,2.86 ± 0.12,2.63 ± 0.15,3.17 ± 0.11
NSSSMEEVMRIALMGQD [ESC2],2.69 ± 0.068,2.67 ± 0.075,2.19 ± 0.12,2.62 ± 0.049
FMEAQGAGIQIIMQADL [FAS2],2.36 ± 0.094,2.33 ± 0.12,2.08 ± 0.24,2.11 ± 0.083
QLSNWQKIRNSEGISEA [ITC1],2.94 ± 0.06,2.96 ± 0.083,2.97 ± 0.065,2.8 ± 0.073
RKAYFTAPSSQRRVLLS [RPL26A],2.44 ± 0.055,2.14 ± 0.056,2.54 ± 0.054,1.74 ± 0.047
MQRHVKVDGKVRTDTTY [RPS4A],3.26 ± 0.1,3.28 ± 0.083,3.03 ± 0.088,3.06 ± 0.063
LYPDSSSFKKNLLKFIT [RPN3],1.19 ± 0.075,1.26 ± 0.069,1.05 ± 0.13,1.25 ± 0.18
AAKTRSYNWGAKAKRRH [RPL37A],3.7 ± 0.15,3.39 ± 0.082,3 ± 0.099,3.49 ± 0.085
YNTNFNLLLRELNVEKL [SRP72],2.9 ± 0.091,3.18 ± 0.11,2.89 ± 0.089,3.26 ± 0.056

Sequence,protein stability index (doa10∆),protein stability index (pdr5∆),protein stability index (san1∆),protein stability index (ubr1∆)
SLVALGIDPQDLKKLNL [CDC53],2.84 ± 0.068,2.72 ± 0.066,2.79 ± 0.049,2.25 ± 0.04
DQGNGWLYVYETPNQDA [RPN6],2.36 ± 0.061,2.01 ± 0.051,2.23 ± 0.067,2.38 ± 0.037
ETLENNIVSVLTAGVNS [RPN11],2.5 ± 0.1,2.65 ± 0.076,2.24 ± 0.11,2.57 ± 0.09
TVLVIDNSEYSRNGDFP [RPN10],2.44 ± 0.058,2.73 ± 0.066,1.48 ± 0.098,2.44 ± 0.041
EINPFLLGTMAGGAADC [PRE2],2.88 ± 0.18,3.22 ± 0.12,2.75 ± 0.15,2.61 ± 0.15
KDIEKLTNEISDLKGKL [YIL149C/MLP2],3.04 ± 0.11,3.12 ± 0.049,3.34 ± 0.067,3.17 ± 0.057
DVTPISMFGSDQKTGRA [RPN4],2.93 ± 0.069,3.11 ± 0.094,3.07 ± 0.066,2.95 ± 0.069
NKVSNTVSPTQDKDAIR [SIR2],2.98 ± 0.052,3.26 ± 0.07,3.17 ± 0.056,3.11 ± 0.054
RILKNKAEYLKNCPITQ [RPC40],2.96 ± 0.052,3.12 ± 0.048,3.02 ± 0.04,2.83 ± 0.037
IKVLLRQNRRPELGDKF [RET1],3.15 ± 0.25,3.49 ± 0.18,3.36 ± 0.09,3.41 ± 0.092
SIGRTAQGKEFGVTKAR [RPL17A],3.28 ± 0.14,3.44 ± 0.12,3.05 ± 0.096,–
GTNAMLPSPESLKTKLN [SNF5],1.88 ± 0.037,1.97 ± 0.035,2.19 ± 0.046,2.12 ± 0.034
ASLKKMEETEQKKIQIN [SMC3],2.33 ± 0.22,1.82 ± 0.076,3.1 ± 0.13,2.23 ± 0.11
FLQSQRQQQQRSILQSL [SWI1],1.8 ± 0.062,1.92 ± 0.073,1.41 ± 0.087,1.55 ± 0.054
SYYGIVCLMQISTRERD [RRP6],1.96 ± 0.12,1.41 ± 0.081,1.21 ± 0.16,1.39 ± 0.09
PNPTPSMINSVSPTNVM [PGD1],2.21 ± 0.032,2.55 ± 0.037,2.32 ± 0.03,2.27 ± 0.028
AIKKSSMKMELLKKELL [SMC2],2.89 ± 0.17,2.19 ± 0.095,2.78 ± 0.2,2.13 ± 0.081
VLSPDSNIMSDSKKIKV [GAL11],2.03 ± 0.13,2.42 ± 0.095,2.44 ± 0.12,2.21 ± 0.12
RRIPKRMRNRALREMRK [POP1],3.26 ± 0.11,2.45 ± 0.058,3.34 ± 0.078,2.88 ± 0.13
VSSKCNDIHLRFMRFLA [ECM29],2.23 ± 0.083,2.38 ± 0.06,2.74 ± 0.18,2.08 ± 0.08
DNVVRFLNEARDKAGRL [RPO21],2.48 ± 0.063,1.61 ± 0.056,2.56 ± 0.14,1.76 ± 0.053
MFKLGNFESPVLKELSR [YLR018C/POM34],–,3.37 ± 0.23,2.85 ± 0.15,2.66 ± 0.16
RLIDSMKQYSYLMDSKN [RRI1],2.62 ± 0.21,2.41 ± 0.14,–,2.87 ± 0.18
PFSEGVTFSVMPPKKSW [SMC4],2.48 ± 0.091,2.03 ± 0.074,2.2 ± 0.11,2.57 ± 0.077
QHDKMVDKIFEKVNNNA [SWI1],3.19 ± 0.15,2.73 ± 0.081,2.87 ± 0.067,2.99 ± 0.041
ILRKSFDFLMNMPNCDY [RPN2],1.3 ± 0.099,1.1 ± 0.092,1.23 ± 0.12,1.16 ± 0.041

Sequence,protein stability index (doa10∆),protein stability index (pdr5∆),protein stability index (san1∆),protein stability index (ubr1∆)
PDFLSKYSAITSSIFQE [NUT1],1.88 ± 0.041,2.05 ± 0.042,2.05 ± 0.06,2 ± 0.033
DGKKHSVFYTILRDYGP [RPO31],2.86 ± 0.072,2.95 ± 0.067,3.19 ± 0.054,2.87 ± 0.06
AELFNNDIKLFVDDTNV [PRP8],2.17 ± 0.065,2.09 ± 0.053,2.46 ± 0.054,2.13 ± 0.034
IIVKILYYRPHINKKSQ [GRR1],1.66 ± 0.096,2.63 ± 0.11,1.23 ± 0.18,2.51 ± 0.11
TAFKSSPFGGSSHAKGI [RPS23A],3.02 ± 0.067,2.61 ± 0.053,3.02 ± 0.048,2.29 ± 0.04
GYDDFQEEGSFEFGNMK [FAS2],3.48 ± 0.14,3.26 ± 0.18,2.6 ± 0.28,3.33 ± 0.08
QYYLSVLNQQLPIESQF [BRR2],2.28 ± 0.059,2.66 ± 0.059,2.65 ± 0.055,2.42 ± 0.039
FGPHVDVNDVLTKYIRS [GRR1],3.3 ± 0.056,3.2 ± 0.061,3.41 ± 0.046,3.29 ± 0.04
CLGIKDEEMLTSCTIPK [GAL11],2.75 ± 0.075,2.98 ± 0.068,2.68 ± 0.049,3.14 ± 0.059
LEQEYRLILLLNHRNKN [RMP1],1.28 ± 0.045,1.18 ± 0.05,1.19 ± 0.084,1.13 ± 0.046
TTTTTTTNNNNTNNNNT [SWI1],3.18 ± 0.034,3.18 ± 0.05,3.303 ± 0.021,3.465 ± 0.024
FSQKANKTKAVDNTVPS [YOR098C/NUP1],2.15 ± 0.085,1.63 ± 0.056,1.81 ± 0.1,2.17 ± 0.046
RVNNPNVSLIKIEGVAT [RPL33A],2.54 ± 0.077,2.62 ± 0.062,2.38 ± 0.077,2.49 ± 0.048
GNLIGVDPFDSDEEESV [SNU114],3.03 ± 0.075,3.14 ± 0.059,3 ± 0.057,3.2 ± 0.054
SLLAMHKHNIMKNENAN [CDC53],2.2 ± 0.064,2.58 ± 0.066,2.82 ± 0.072,3.05 ± 0.046
GLTLSTTNLDIDLLTFQ [RPP1],2.94 ± 0.067,3.04 ± 0.06,3.16 ± 0.056,2.86 ± 0.05
GKILTIKQQQQQQQQQN [YML103C/NUP188],2.77 ± 0.049,3.13 ± 0.053,3.12 ± 0.048,2.96 ± 0.049
LLNEYRPHQSRESLIML [MED7],2.31 ± 0.074,2.15 ± 0.12,2.01 ± 0.12,1.98 ± 0.059
RLEFDQDRDRFFLRDTL [SNF5],3.07 ± 0.061,3.38 ± 0.065,3.06 ± 0.048,3.4 ± 0.061
QSVEEKVLEMKNLKDTA [YIL149C/MLP2],2.81 ± 0.25,2.58 ± 0.2,–,2.78 ± 0.089
NSSEIQSAIRPAGQATQ [RPL4A],2.63 ± 0.085,2.85 ± 0.094,2.77 ± 0.039,2.57 ± 0.062
PVRPVRVRHEDVETVKR [RPC53],2.9 ± 0.077,2.97 ± 0.048,2.88 ± 0.055,3.04 ± 0.037
ATPIPEEVQQAQTEIKL [RPS5],2.82 ± 0.11,2.89 ± 0.1,2.97 ± 0.096,3.05 ± 0.11
TSMTGDANLLEEGETSR [SWI3],3.2 ± 0.092,3.35 ± 0.097,3.2 ± 0.037,3.3 ± 0.041
QAIPKFQMNCYAKEDAF [RPN2],1.84 ± 0.061,2.23 ± 0.044,2.17 ± 0.067,2.57 ± 0.036
